9 molecules from paper PMC8497518, “ssDNA recombineering boosts in vivo evolution of nanobodies displayed on bacterial surfaces” (Communications Biology, 2021) can be followed below.

Assay [1] deals with TirM^EPEC, extracellular domain of the translocated intimin receptor (Tir) of enteropathogenic E. coli (enteropathogenic E. coli (EPEC)). Briefly: SEC; purified TirM^EPEC in solution, size exclusion chromatography. On the technique in general: Size exclusion chromatography separates by hydrodynamic size, large species first.
The target in assay [2] is T1, TirM^EHEC, extracellular domain of the translocated intimin receptor (Tir) of enterohaemorrhagic E. coli (Escherichia coli EHEC; strain not …, UniProt Q7DB77, biotin (NHS-biotin, biotin:protein 20:1) for flow cytometry and MACS).
T1 construct: Translocated intimin receptor Tir of enterohaemorrhagic E. coli (EHEC), extracellular TirM domain; also called EHEC TirM; former antigen
Briefly: flow cytometry on cells; E. coli displaying the intimin-Nb fusion (multivalent) incubated 90 min at 4 °C in PBS with biotinylated antigen (0-250 nM TirM^EPEC or 0-50 nM TirM^EHEC), stained with streptavidin-allophycocyanin; median fluorescence fitted to one-site specific binding; apparent KD. The note with it: one partner purified. Background: Flow cytometry measures light scatter and fluorescence of single cells or particles in a stream.

The target in assay [3] is T2, TirM^EPEC, extracellular domain of the translocated intimin receptor (Tir) of enteropathogenic E. coli (Escherichia coli EPEC; strain not …, UniProt B7UM99, biotin (NHS-biotin, biotin:protein 20:1) for flow cytometry and MACS).
T2 construct: Translocated intimin receptor Tir of enteropathogenic E. coli (EPEC), extracellular TirM domain; also called EPEC TirM; new antigen
Described as above. The note with it: one partner purified.

Assay [4] has as its target T2, TirM^EPEC, extracellular domain of the …. Briefly: ELISA; Maxisorp plates coated with His-tagged TirM at 10 ug/mL in PBS; purified monovalent Nb in 3% skimmed milk in PBS, 0-100 nM (TD4) or 0-400 nM (mutants), 90 min at 23 °C; detected with anti-E-tag; one-site specific binding fit; apparent KD. Particulars: both partners purified.
Target sequence in this assay (B7UM99 255-362): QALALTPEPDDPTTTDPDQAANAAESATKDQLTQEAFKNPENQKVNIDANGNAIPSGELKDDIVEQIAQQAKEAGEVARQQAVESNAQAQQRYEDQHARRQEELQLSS
The target in assay [5] is T1, TirM^EHEC, extracellular domain of the …. Described as above. Particulars: both partners purified.
Target sequence in this assay (Q7DB77 252-362): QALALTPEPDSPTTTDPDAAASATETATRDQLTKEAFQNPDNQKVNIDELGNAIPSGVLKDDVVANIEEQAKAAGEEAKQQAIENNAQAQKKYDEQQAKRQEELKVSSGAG
Assay [6] concerns the target T2, TirM^EPEC, extracellular domain of the …. Described as above. The note with it: both partners purified. The source holds these as a separate data set.
Target sequence in this assay (B7UM99 255-362): as the sequence (B7UM99 255-362) above

A word on the stoichiometry N: it is the number of molecules, sites or subunits per partner or assembly. Consider “TirM^EPEC, extracellular domain of the translocated intimin receptor (Tir) of enteropathogenic E. coli (domain or fragment)”, for which, in assay [1], the stoichiometry N was determined as 2.

B1: Nb TD4 displayed on E. coli as a fusion to the outer membrane anchoring domain of intimin (VHH)
VHH: QVQLVDAGGGSVQAGGSLTLSCVASGAAYSTNLLGWFRQAPGKEREGVASIYRGNSATNYADSVKGRFTISQDKTKYTIYLQMNSLKPEDSAMYYCAHGTAPYWHTPIPTLSEDKYFYWGQGTQVTVSS
notes: VHH TD4; multivalent on the bacterial surface; also called parental Nb; non-evolved TD4; not shown: intimin outer membrane anchoring domain, N-terminal, kept
Consider B1, for which the Kd in assay [2] is 0.41 nM.

B2: Nb TD4^H107Y displayed on E. coli as a fusion to the outer membrane anchoring domain of intimin (VHH)
VHH: QVQLVDAGGGSVQAGGSLTLSCVASGAAYSTNLLGWFRQAPGKEREGVASIYRGNSATNYADSVKGRFTISQDKTKYTIYLQMNSLKPEDSAMYYCAHGTAPYWYTPIPTLSEDKYFYWGQGTQVTVSS
notes: as the VHH of m3 with H107Y (CDR3); Evolved from TD4 by DIvERGE mutagenesis and MACS selection; also called Nb H107Y; not shown: intimin outer membrane anchoring domain, N-terminal, kept
For B2, the Kd in assay [3] was 33.9 nM; in assay [2], 0.57 nM.

B3: Nb TD4^T108R displayed on E. coli as a fusion to the outer membrane anchoring domain of intimin (VHH)
VHH: QVQLVDAGGGSVQAGGSLTLSCVASGAAYSTNLLGWFRQAPGKEREGVASIYRGNSATNYADSVKGRFTISQDKTKYTIYLQMNSLKPEDSAMYYCAHGTAPYWHRPIPTLSEDKYFYWGQGTQVTVSS
notes: as the VHH of m3 with T108R (CDR3); Evolved from TD4 by DIvERGE mutagenesis and MACS selection; also called Nb T108R; not shown: intimin outer membrane anchoring domain, N-terminal, kept
Regarding B3, the results for the Kd in assay [3] and in assay [2] were 27.6 nM and 0.36 nM, respectively.

B4: Nb TD4^T108R, secreted His6-tagged VHH-HlyA fusion (monovalent, purified) (VHH)
VHH: QVQLVDAGGGSVQAGGSLTLSCVASGAAYSTNLLGWFRQAPGKEREGVASIYRGNSATNYADSVKGRFTISQDKTKYTIYLQMNSLKPEDSAMYYCAHGTAPYWHRPIPTLSEDKYFYWGQGTQVTVSS
notes: as the VHH of m7 with T108R; also called Nb T108R
For B4, the Kd in assay [4] came out at 176 nM; in assay [5], 4.61 nM.

B5: Nb TD4^D116G displayed on E. coli as a fusion to the outer membrane anchoring domain of intimin (VHH)
VHH: QVQLVDAGGGSVQAGGSLTLSCVASGAAYSTNLLGWFRQAPGKEREGVASIYRGNSATNYADSVKGRFTISQDKTKYTIYLQMNSLKPEDSAMYYCAHGTAPYWHTPIPTLSEGKYFYWGQGTQVTVSS
notes: as the VHH of m3 with D116G (CDR3); Evolved from TD4 by DIvERGE mutagenesis and MACS selection; also called Nb D116G; not shown: intimin outer membrane anchoring domain, N-terminal, kept
In the case of B5, the results for the Kd in assay [3] and in assay [2] were 17.9 nM and 0.58 nM, respectively.

B6: Nb TD4^D116G, secreted His6-tagged VHH-HlyA fusion (monovalent, purified) (VHH)
VHH: QVQLVDAGGGSVQAGGSLTLSCVASGAAYSTNLLGWFRQAPGKEREGVASIYRGNSATNYADSVKGRFTISQDKTKYTIYLQMNSLKPEDSAMYYCAHGTAPYWHTPIPTLSEGKYFYWGQGTQVTVSS
notes: as the VHH of m7 with D116G; also called Nb D116G
For B6, the Kd worked out at 397 nM in assay [4] and 137 nM in assay [5].

B7: Nb TD4^H107Y, secreted His6-tagged VHH-HlyA fusion (monovalent, purified) (VHH)
VHH: QVQLVDAGGGSVQAGGSLTLSCVASGAAYSTNLLGWFRQAPGKEREGVASIYRGNSATNYADSVKGRFTISQDKTKYTIYLQMNSLKPEDSAMYYCAHGTAPYWYTPIPTLSEDKYFYWGQGTQVTVSS
notes: as the VHH of m7 with H107Y; also called Nb H107Y
On to B7, for which the results for the Kd in assay [6], in assay [4] and in assay [5] were 20.8 ± 2.31 nM, 20.1 nM and 47.7 nM, respectively.

B8: Nb TD4, secreted His6-tagged VHH-HlyA fusion (monovalent, purified) (VHH)
VHH: QVQLVDAGGGSVQAGGSLTLSCVASGAAYSTNLLGWFRQAPGKEREGVASIYRGNSATNYADSVKGRFTISQDKTKYTIYLQMNSLKPEDSAMYYCAHGTAPYWHTPIPTLSEDKYFYWGQGTQVTVSS
notes: VHH TD4, as the VHH of m3; No cleavage of the HlyA part or the His tag is described; the fusion was detected by anti-E-tag in ELISA; also called parental TD4; non-evolved TD4; source: E. coli HB2151 with pVDL9.3 (HlyBD) and a pEHLYA derivative, secreted, purified from culture medium (Talon resin)
As for B8, the Kd in assay [5] is 5.55 nM.
